Blank lines part the entries; values can stand above or below the binder they belong to.
Assays:
Fc-labeled CD70 antigen [1] = target: T1, Fc-labeled CD70 antigen; assay: flow cytometry: CAR-transduced T cells stained with Fc-labeled CD70 antigen (1:100) and secondary antibody PE-Fc; NT control 0.61
T1 construct: soluble antigen used at 1:100 to stain CAR-T cells; also called detected with the secondary antibody PE-Fc (axis label PE-Fc)
T1 sequence (P32970 whole entry, species assumed, looked up): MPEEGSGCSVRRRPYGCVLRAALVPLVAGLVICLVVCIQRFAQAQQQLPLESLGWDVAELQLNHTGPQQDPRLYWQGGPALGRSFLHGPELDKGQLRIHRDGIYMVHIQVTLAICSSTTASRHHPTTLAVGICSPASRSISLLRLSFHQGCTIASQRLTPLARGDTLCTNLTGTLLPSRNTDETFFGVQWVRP
Procedure: The CAR positive rate of the retrovirus-infected T lymphocytes were detected 72 hours after virus infection. For the chimeric antigen receptor group containing CD70-2A5-BBz, CD70-5C10-BBz, CD70-8A6-BBz, CD70-8B4-BBz, CD70-8E1-BBz, CD70-8F9-BBz, CD70-9D8-BBz, CD70-11C9-BBz and ARGX-BBz clone and the negative uninfected control group NT, 1×10⁶ cells from the above two groups respectively, were taken and centrifuged to remove the medium, the cells were washed once with PBS, and resuspended in 100 μL of the flow loading tube (BD). Fc-labeled CD70 antigen (1:100) was added and incubated for 30 minutes at 4° C. After washing the cells once with PBS, the secondary antibody PE-Fc was added according to the recommended ratio and incubated for 30 minutes in the dark. After the cells were washed once with PBS, the cells were resuspended in 200 μL of PBS and tested on the machine. The results of flow cytometric analysis of CAR-T positive rate are shown by FIG. 11.

Fc-labeled CD70 antigen [2] = target: T1, Fc-labeled CD70 antigen; assay: flow cytometry: CAR-transduced T cells stained with Fc-labeled CD70 antigen (1:100) and secondary antibody PE-Fc; NT control 0.79
Procedure: The CAR positive rate of the retrovirus-infected T lymphocytes was detected 72 hours after virus infection. For the chimeric antigen receptor group containing CD70-2A5-BBz, CD70-8B4-BBz, CD70-9D8-BBz, CD70-11C9-BBz and ARGX-BBz clones and the negative uninfected control NT, 1×10⁶ cells from the above two groups respectively, were taken and centrifuged to remove the medium, washed once with PBS, and resuspended in 100 μL in a flow loading tube (BD). Fc-labeled CD70 antigen (1:100) was added and incubated for 30 minutes at 4° C. After washing the cells once with PBS, the secondary antibody PE-Fc was added according to the recommended ratio and incubated for 30 minutes in the dark. After the cells were washed once with PBS, the cells were resuspended in 200 μL of PBS and tested on the machine. The results of flow cytometric analysis of CAR-T positive rate are shown by FIG. 16.

[3] = target: T2, recombinant human CD27-his protein (human, UniProt P26842 21-192, limits assumed); assay: ELISA; CD70-alFc coated in 4-fold dilution from 100 ng, 0.1 ug/mL CD27-his in solution, HRP anti-his-tag detection; coated CD70-alFc titrated, CD27-his fixed at 0.1 µg/mL
T2 construct: Bought; also called commercial CD27; recombinant human CD27 protein; not shown: his tag
T2 sequence (looked up): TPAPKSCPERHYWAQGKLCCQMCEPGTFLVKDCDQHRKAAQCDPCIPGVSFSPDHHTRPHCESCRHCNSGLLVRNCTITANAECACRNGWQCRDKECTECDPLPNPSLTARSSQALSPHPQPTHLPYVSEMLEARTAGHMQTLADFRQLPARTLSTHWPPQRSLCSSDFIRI
Procedure: ELISA activity identification of recombinant human CD70-alFc protein with commercial CD27: recombinant human CD70-alFc protein was coated in a 4-fold gradient dilution package in an ELISA plate, the first well was coated with 100 ng, and sequentially diluted 4-fold (100 uL/well), incubated at 4° C. overnight, washed 3 times with 200 uL PBST the next day, and blocked with 1% BSA/PBS for 1 hour. The blocking solution was removed, 100 μL 0.1 μg/mL recombinant human CD27-his protein was added to each well, and incubated at 37° C. for 1 hour. After washing 3 times with 200 μL PBST, horseradish peroxidase-labeled rabbit anti-his-tag antibody (100 μL per well) diluted 1:4000 was added, and incubated at 37° C. for 1 hour. After washing 3 times with 200 μL PBST, 100 μL TMB chromogen solution was added for development at 37° C. for 10 minutes, 100 μL 1M hydrochloric acid was added to stop the reaction, and the absorbance value at OD₄₅₀ was obtained. The analysis results are shown by FIG. 2 and Table 1.

CD70-9D8 VHH-huIgG1-Fc = target: T3, CD70-9D8 VHH-huIgG1-Fc (human, UniProt P01857-1 104-330 = IgG part, limits assumed); assay: BLI (Octet K2); biotinylated CD70 on SA probe, VHH-huFc as analyte at 200, 100, 50, 25 nM
T3 construct: domain: IgG1-Fc; Recombinant VHH-huIgG1-Fc made in 293F cells; also called VHH-huFc antibody CD70-9D8
Procedure: (§1) The affinity of four VHH-huFc antibodies CD70-2A5, CD70-8B4, CD70-9D8, and CD70-11C9 to human CD70 was analyzed by Octet K2 molecular interaction analyzer. The SA probe was immobilized with 200 μL 100 nM biotinylated recombinant human CD70 protein at a height of […]. […] The results are shown by FIG. 8 and Table 4.

CD70-11C9 VHH-huIgG1-Fc = target: T4, CD70-11C9 VHH-huIgG1-Fc (human, UniProt P01857-1 104-330 = IgG part); assay: as above
T4 construct: domain: IgG1-Fc; Recombinant VHH-huIgG1-Fc made in 293F cells; also called VHH-huFc antibody CD70-11C9
Procedure: as §1

CD70-2A5 VHH-huIgG1-Fc = target: T5, CD70-2A5 VHH-huIgG1-Fc (human, UniProt P01857-1 104-330 = IgG part, limits assumed); assay: as above
T5 construct: domain: IgG1-Fc; Recombinant VHH-huIgG1-Fc made in 293F cells; also called VHH-huFc antibody CD70-2A5
Procedure: as §1

CD70-8B4 VHH-huIgG1-Fc = target: T6, CD70-8B4 VHH-huIgG1-Fc (human, UniProt P01857-1 104-330 = IgG part, limits assumed); assay: as above
T6 construct: domain: IgG1-Fc; Recombinant VHH-huIgG1-Fc made in 293F cells; also called VHH-huFc antibody CD70-8B4
Procedure: as §1

CD70 CAR+ (positive rate of the cells) (Fc-labeled CD70 antigen [1]): 72.7%
B1: 8F9-BBz (other)
chimeric antigen receptor chain: QLQLVESGGGLVQAGGSLRLSCAVSGRTSSTYAMAWFRQAPGKEREIVAVIGWSGGRTAYADSVKGRFTIAKDNAKNTVSLQMNSLKPEDTGVYYCAADSEQSSSSEGQAYGYEDWGQGTLVTVSSTTTPAPRPPTPAPTIASQPLSLRPEACRPAAGGAVHTRGLDFACDIYIWAPLAGTCGVLLLSLVITLYCRFSVVKRGRKKLLYIFKQPFMRPVQTTQEEDGCSCRFPEEEEGGCELRVKFSRSADAPAYQQGQNQLYNELNLGRREEYDVLDKRRGRDPEMGGKPRRKNPQEGLYNELQKDKMAEAYSEIGMKGERRRGKGHDGLYQGLSTATKDTYDALHMQALPPR
notes: also called CD70-8F9-BBz

CD70 CAR+ (positive rate of the cells) (Fc-labeled CD70 antigen [1]): 74.1%
CD70 CAR+ (positive rate of the cells) (Fc-labeled CD70 antigen [2]): 83%
B2: 9D8-BBz (other)
chimeric antigen receptor chain: QLQLVESGGGLVQPGGSLRLSCAVSGRTSSTYAMAWFRQAPGKEREIVAVITWSGGRTAYADSVKGRFTIAKDSAKNTVYLQMNSLKPEDTAVYYCAADSEVSSSSEGQYGYESWGQGTQVTVSSTTTPAPRPPTPAPTIASQPLSLRPEACRPAAGGAVHTRGLDFACDIYIWAPLAGTCGVLLLSLVITLYCRFSVVKRGRKKLLYIFKQPFMRPVQTTQEEDGCSCRFPEEEEGGCELRVKFSRSADAPAYQQGQNQLYNELNLGRREEYDVLDKRRGRDPEMGGKPRRKNPQEGLYNELQKDKMAEAYSEIGMKGERRRGKGHDGLYQGLSTATKDTYDALHMQALPPR
notes: also called CD70-9D8-BBz

CD70 CAR+ (positive rate of the cells) (Fc-labeled CD70 antigen [1]): 51.3%
CD70 CAR+ (positive rate of the cells) (Fc-labeled CD70 antigen [2]): 70.9%
B3: 11C9-BBz (other)
chimeric antigen receptor chain: QVQLVESGGGLVQPGGSLRLSCAASGFTLDYYAVGWFRQAPGKEREGVSCISSSSDGSTYYVDSVLGRFTISRNNAENTVYLQMNSLKPEDTAVYYCSTDVLTSCRSDRYLEVWGQGTLVTVSGTTTPAPRPPTPAPTIASQPLSLRPEACRPAAGGAVHTRGLDFACDIYIWAPLAGTCGVLLLSLVITLYCRFSVVKRGRKKLLYIFKQPFMRPVQTTQEEDGCSCRFPEEEEGGCELRVKFSRSADAPAYQQGQNQLYNELNLGRREEYDVLDKRRGRDPEMGGKPRRKNPQEGLYNELQKDKMAEAYSEIGMKGERRRGKGHDGLYQGLSTATKDTYDALHMQALPPR
notes: also called CD70-11C9-BBz

CD70 CAR+ (positive rate of the cells) (Fc-labeled CD70 antigen [1]): 72.1%
CD70 CAR+ (positive rate of the cells) (Fc-labeled CD70 antigen [2]): 78.3%
B4: 8B4-BBz (other)
chimeric antigen receptor chain: EVQLVESGGGFVQPGGSLRLSCAASGFTLDGYAVAWFRQAPGKEREGVSCISSSDGSTYYIDSVQGRFTITRNNAKNTVYLQMNSLKPEDTAVYYCTTDVLTSCRSDRWLEVWGQGTLVTVSSTTTPAPRPPTPAPTIASQPLSLRPEACRPAAGGAVHTRGLDFACDIYIWAPLAGTCGVLLLSLVITLYCRFSVVKRGRKKLLYIFKQPFMRPVQTTQEEDGCSCRFPEEEEGGCELRVKFSRSADAPAYQQGQNQLYNELNLGRREEYDVLDKRRGRDPEMGGKPRRKNPQEGLYNELQKDKMAEAYSEIGMKGERRRGKGHDGLYQGLSTATKDTYDALHMQALPPR
notes: also called CD70-8B4-BBz

EC50 [3]: 8.69 ng/mL
B5: recombinant human CD70-alFc protein (Fc fusion)
chain: QRFAQAQQQLPLESLGWDVAELQLNHTGPQQDPRLYWQGGPALGRSFLHGPELDKGQLRIHRDGIYMVHIQVTLAICSSTTASRHHPTTLAVGICSPASRSISLLRLSFHQGCTIASQRLTPLARGDTLCTNLTGTLLPSRNTDETFFGVQWVRPELKTPQPQSQPECRCPKCPAPELLGGPSVFIFPPKPKDVLSISGRPEVTCVVVDVGQEDPEVSFNWYIDGAEVRTANTKPKEEQFNSTYRVVSVLPIRHQDWLTGKEFKCKVNNKALPAPIERTISKAKGQTREPQVYALAPHREELAKDTVSVTCLVKDFYPVDINIEWQRNGQPESEGTYATTPPQLDNDGTYFLYSKLSVGKNTWQRGETFTCVVMHEALPNHYTQKSITQSSGK
notes: range 39-193; Made in 293T cells; also called CD70-alIgG1Fc fusion protein; recombinant human CD70 protein

CD70 CAR+ (positive rate of the cells) (Fc-labeled CD70 antigen [1]): 75.8%
CD70 CAR+ (positive rate of the cells) (Fc-labeled CD70 antigen [2]): 82.4%
B6: 2A5-BBz (other)
chimeric antigen receptor chain: EVQLVESGGGLVQAGGSLRLSCAASGSIFSINAMGWYRQAPGKQRELVAAITSGGSTNYADSVKGRFTISRDNAKNTVYLQMNSLKPEDTAVYYCNAGAGRAFPGDYWGQGTQVTVSSTTTPAPRPPTPAPTIASQPLSLRPEACRPAAGGAVHTRGLDFACDIYIWAPLAGTCGVLLLSLVITLYCRFSVVKRGRKKLLYIFKQPFMRPVQTTQEEDGCSCRFPEEEEGGCELRVKFSRSADAPAYQQGQNQLYNELNLGRREEYDVLDKRRGRDPEMGGKPRRKNPQEGLYNELQKDKMAEAYSEIGMKGERRRGKGHDGLYQGLSTATKDTYDALHMQALPPR
notes: also called CD70-2A5-BBz

CD70 CAR+ (positive rate of the cells) (Fc-labeled CD70 antigen [1]): 60%
B7: 5C10-BBz (other)
chimeric antigen receptor chain: QVQLVESGGGLVQAGGSLRLSCAASGSIFSMNAMGWYRQAPGKQRELVAAITSGGSTNYVDSVKGRFTISRDNAKNTVYLQMNSLKPEDTAVYYCNAGAGRAFPGDYWGQGTQVTVSSTTTPAPRPPTPAPTIASQPLSLRPEACRPAAGGAVHTRGLDFACDIYIWAPLAGTCGVLLLSLVITLYCRFSVVKRGRKKLLYIFKQPFMRPVQTTQEEDGCSCRFPEEEEGGCELRVKFSRSADAPAYQQGQNQLYNELNLGRREEYDVLDKRRGRDPEMGGKPRRKNPQEGLYNELQKDKMAEAYSEIGMKGERRRGKGHDGLYQGLSTATKDTYDALHMQALPPR
notes: also called CD70-5C10-BBz

Kd (CD70-9D8 VHH-huIgG1-Fc): 1830 pM
koff (CD70-9D8 VHH-huIgG1-Fc): 0.000235 s⁻¹
kon (CD70-9D8 VHH-huIgG1-Fc): 129000 M⁻¹ s⁻¹
Kd (CD70-11C9 VHH-huIgG1-Fc): < 1 pM
koff (CD70-11C9 VHH-huIgG1-Fc): < 1e-07 s⁻¹
kon (CD70-11C9 VHH-huIgG1-Fc): 264000 M⁻¹ s⁻¹
Kd (CD70-2A5 VHH-huIgG1-Fc): < 1 pM
koff (CD70-2A5 VHH-huIgG1-Fc): < 1e-07 s⁻¹
kon (CD70-2A5 VHH-huIgG1-Fc): 36700 M⁻¹ s⁻¹
Kd (CD70-8B4 VHH-huIgG1-Fc): < 1 pM
koff (CD70-8B4 VHH-huIgG1-Fc): < 1e-07 s⁻¹
kon (CD70-8B4 VHH-huIgG1-Fc): 45500 M⁻¹ s⁻¹
B8: biotinylated recombinant human CD70 protein (ligand, UniProt P32970 39-193, looked up)
chain: QRFAQAQQQLPLESLGWDVAELQLNHTGPQQDPRLYWQGGPALGRSFLHGPELDKGQLRIHRDGIYMVHIQVTLAICSSTTASRHHPTTLAVGICSPASRSISLLRLSFHQGCTIASQRLTPLARGDTLCTNLTGTLLPSRNTDETFFGVQWVRP
modifications: biotin on the avi-tag
notes: also called biotinylated CD70 protein; biotinylated CD70 recombinant protein; not shown: avi-tag (and any other tag or Fc)
